# Data as given in the nanobody polyreactivity screen of Harvey et al. (2022).
# Experiment: yeast display, Sf9 membrane polyspecificity reagent, FACS + sequencing; frameworks hold sequencing errors
# Summary of the method: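 In a synthetic yeast display library (Saccharomyces cerevisiae BJ5465), nanobody expression was induced with galactose for 36–48 hours. FACS gates were set low and high (top ~1%) using anti-HA fluorescence for expression and streptavidin fluorescence for binding of the Sf9 membrane reagent. Each polyreactivity label is drawn from the gate of origin.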
row,Sequence,polyreactivity (PSR sort gate)
1,QVQLVESGGGLVQAGGSLRFSCAASGTFDYYDMGWYRQAPGKEWELVAGITSGGSTDYADSEKGRFTISRDNAKNTVYLQMNSLKPEDTAVYYCAADPFRIHTYDYWGQGTQVTVSS,low polyreactivity
2,QVQLVESGGGLVQAGGSLRFSCAASGTFVPYAMGWYRQAPGKEMELVARITWRGGSTYYADSVKGRFTISRDNAKNTVYLQMNSLKPEDTAVYYCATVSDNRYYYWGQGTQVTVSS,low polyreactivity
3,QVQLVESGGGLVQAGGSLRFSCADSGSIFRYAMGWYRQAPGKERELVAGMSASGGRTYYADSVKGRFTISRDNAKNTVYLQMNSLKPEDTAVYYCNAVTREYQRPPVPRSYLYDYWGQGTQVTVSS,high polyreactivity
4,QVQLVESGGGLVQAGGSLRFSCAPSGITFRFYAMGCYRQAPGKESEFVAAISSRGGRTYYADSVKGRFTISRDYAKNTVYLQMNSLKPEDTAVYYCAAGKIGRYHYDYWGQGTQVTVSS,high polyreactivity
5,QVQLVESGGGLVQAGGSLRFSCPASGLIFYYYVMGWYRQAPGKEREFVAAIRYRSSSTYYADSVKGRFTISRVNAKNTVYLQMNSVKPEDTAVYYCGADIYTYNLFYHGRWLDYNYWGQGTQVTVSS,high polyreactivity
6,QVQLVESGGGLVQAGGSLRIICAASGRIFRENAMGWYRQAPGKAREWVAAISSGGSTYYADSVKGRFTISRDNAKNTDYLQMNSLKPEDPAVYYCAADLSWSRVVFGDYDYWGQGTHVTVSS,low polyreactivity
7,QVQLVESGGGLVQAGGSLRIICAASGRIFYSNGMGWYRQAPGKERELVAGITRGGSTNYADSVKGRFTISRDNAKNTVYLQMISLKPEDTAVFYCAANQLHYRPSRFVYYGYRLYDYWGHGTQVTVSS,low polyreactivity
8,QVQLVESGGGLVQAGGSLRIICAASGTTFVYNDMGWYRQAPGKEGELVAGITTSGGSTYYADSVKGRFTISRDNAKNTVYLQRNSLKPEDTAVYYWAAPAFSAWLEMDYWGQGTQVTVSS,low polyreactivity
9,QVQLVESGGGLVQAGGSLRISCAASGFIFFYAMGWYRQAPGKERELVASIDSGVSTDYADSVKGRLTISRDNAKNTVYLQMNSLKPEDNAVYYCAADPWSSLNYDYWGQGTQVTVSS,low polyreactivity
10,QVQLVESGGGLVQAGGSLRISCAASGFIFGPNAMGWYRQAPGKERELVAAISYSGGRTYYADSVKGRFTISRDNAKNTVYLQMNILKPEDTAVYYCAQPGRYWGQGTQVTVSS,high polyreactivity
11,QVQLVESGGGLVQAGGSLRISCAASGFIFIAYAMGWYRQAPGKERELVAAISKSGGNTYYADSVKGRFTISRDNAKNTVYLQMNSLKPEDTAVYYCATRPCYWRYEYWGQGTQVTVSA,high polyreactivity
12,QVQLVESGGGLVQAGGSLRISCAASGFIFRPNAMGWYRQAPGKERELVAAITRDGDRTYYADSVKGRFTISRDNAKNTVYLQMNSLKPEDTAVYYCAADVIQWWTRYYTWEYDYWGQGTQVTVSS,low polyreactivity
13,QVQLVESGGGLVQAGGSLRISCAASGFIFRYYAMGWYRQAPGKERELVARITNGGSTKYSDSVKGRFTISRDNAKTTVYLQMNSLKPEDTAVYYCNTDGLVRNGPFFSWGQGTQVTVSS,low polyreactivity
14,QVQLVESGGGLVQAGGSLRISCAASGFIFTSKAMGWHRQAPGKERELVAAITKSGGSTYYADSVKGRFTISRDNAKNTVYLQMNSLKPEDTAVYYCAAYPTSRYKYEYWGQGTQVTVSS,high polyreactivity
15,QVQLVESGGGLVQAGGSLRISCAASGFIFYSYPMGWYRQAPGKERELVAAISTSGGSTYYADSVKGRFTISRDNAKNTVYLQMNSLKPEDTAVYYCAVGRKFGRYRVPFVVPYEYWGHGTQVTVSS,high polyreactivity
16,QVQLVESGGGLVQAGGSLRISCAASGFILGYKDMGWYRQAPGKERELVAAISSSGGSTYYADSVKGRFTISRDNSKNTVYLQMNILKPEDTAVYYCGLPYQTSYGEYDYWGQGTQVTVSS,low polyreactivity
17,QVQLVESGGGLVQAGGSLRISCAASGFTFHTYAMGWYRQAPGKERELVAAIDSSGGITYYADSVKGRFTISRDNAKNTVYLQMTSLKPEDTAVYYCAAVFLLFGFEWSYDYWGQGTQVTVSS,low polyreactivity
18,QVQLVESGGGLVQAGGSLRISCAASGFTFNANAMAWYRQAPGKERELVAAISLSGGRTYYADSVKRRFTISRDNAKNTVYLQMNSMKQVDTAVYYCAASPDGSFRRFSRVVSGDYWGQGTQVTVSS,high polyreactivity
19,QVQLVESGGGLVQAGGSLRISCAASGFTFPSNAMGWYRQAPGKERELVAAITGGGRTYYADSVKGRFTISRDNAKNTVFFQMNSLKPEDTAVYYCNRPTRVHLTHYDYCGQGTQVTVSS,high polyreactivity
20,QVQLVESGGGLVQAGGSLRISCAASGFTFRSYAMGWYRQAPGKERELVAAISWRGGRTYYADSVKGRFTISRDNAKNTVYLQMNSLKPLDTAVYYCATDWYWGSYAPYTTRAHFDYWGQGTQVTVSS,high polyreactivity
21,QVQLVESGGGLVQAGGSLRISCAASGFTIAYYAMGWYRQAPGKERQKVASISSGDSTHYADSVKGRFTISRDNAKNTVYLQMNSLKPEDTAVYYCNADTRTFYYAAKTGFTFLYGYWGQGTQVTVSS,high polyreactivity
22,QVQLVESGGGLVQAGGSLRISCAASGGIFIRNAMGWYRQAPGKERELFATISNAGSTYADSVKGRFTISRDNAKNTVYLQMNSLKPEDTAVYYCNRVDWTYPVSQGLQEYDYRGQGTQVTVSS,low polyreactivity
